Data published in the Immune Epitope Database (IEDB).

Legend:
[1] = target: HLA-B*15:03; assay: IEDB peptide-MHC binding, purified MHC/competitive/radioactivity; filed as Kd, often an IC50 or EC50 that approximates it; ≥ and ≤ were set here for values at or beyond the usual limits of such assays
[2] = target: HLA-A*32:01; assay: as above
[3] = target: HLA-B*58:01; assay: as above
[4] = target: HLA-B*57:01; assay: as above
[5] = target: HLA-A*24:02; assay: as above; conditions: source organism: Dengue virus 1 Singapore/S275/1990
[6] = target: HLA-B*15:01; assay: as above
[7] = target: HLA-A*30:01; assay: as above; conditions: source organism: Vaccinia virus WR
[8] = target: HLA-B*08:01; assay: as above; conditions: source organism: Vaccinia virus WR
[9] = target: HLA-B*15:01; assay: IEDB peptide-MHC binding, purified MHC/competitive/fluorescence; filed as Kd, often an IC50 or EC50 that approximates it; ≥ and ≤ were set here for values at or beyond the usual limits of such assays; conditions: source organism: Yersinia pestis Nepal516
[10] = target: HLA-B*35:01; assay: as above; conditions: source organism: Yersinia pestis Nepal516
[11] = target: HLA-A*29:02; assay: as above
[12] = target: HLA-B*58:01; assay: IEDB peptide-MHC binding, purified MHC/direct/fluorescence; filed as Kd, often an IC50 or EC50 that approximates it; ≥ and ≤ were set here for values at or beyond the usual limits of such assays; conditions: source organism: Yersinia pestis Nepal516
[13] = target: HLA-B*40:01; assay: as above; conditions: source organism: Yersinia pestis Nepal516
[14] = target: HLA-B*15:01; assay: as above; conditions: source organism: Yersinia pestis
[15] = target: HLA-B*27:05; assay: as above; conditions: source organism: Yersinia pestis Nepal516
[16] = target: HLA-B*08:01; assay: as above; conditions: source organism: Yersinia pestis
[17] = target: HLA-A*01:01; assay: as above; conditions: source organism: Yersinia pestis Nepal516
[18] = target: HLA-A*26:01; assay: as above; conditions: source organism: Yersinia pestis Nepal516
[19] = target: HLA-B*44:02; assay: as above; conditions: source organism: Yersinia pestis Nepal516
[20] = target: HLA-A*11:01; assay: as above; conditions: source organism: Yersinia pestis Nepal516
[21] = target: HLA-A*02:01; assay: as above; conditions: source organism: Yersinia pestis
[22] = target: HLA-A*31:01; assay: as above; conditions: source organism: Yersinia pestis Nepal516
[23] = target: HLA-A*03:01; assay: as above; conditions: source organism: Yersinia pestis Nepal516
[24] = target: HLA-A*69:01; assay: as above; conditions: source organism: Yersinia pestis Nepal516
[25] = target: HLA-B*07:02; assay: as above; conditions: source organism: Yersinia pestis
[26] = target: HLA-B*39:01; assay: as above
[27] = target: HLA-A*03:01; assay: IEDB peptide-MHC binding, purified MHC/competitive/fluorescence; filed as Kd, often an IC50 or EC50 that approximates it; ≥ and ≤ were set here for values at or beyond the usual limits of such assays; conditions: source organism: Entamoeba histolytica HM-1:IMSS
[28] = target: HLA-A*68:02; assay: as above; conditions: source organism: Bacillus anthracis str. A0488
[29] = source organism: Vaccinia virus Copenhagen
[30] = source organism: Vaccinia virus WR
[31] = source organism: Dengue virus 1 Brazil/97-11/1997
[32] = source organism: Dengue virus 1 Singapore/S275/1990
[33] = source organism: Dengue virus 2 Jamaica/1409/1983
[34] = source organism: Pan troglodytes

IIFMNLYSF
Kd [1, 29]: 10.7 nM | Kd [2, 29]: 1.25 nM

IKENSIYSF
Kd [1, 30]: 1.45 nM

IKTMMINPF
Kd [1, 30]: 0.191 nM

ILVPNINIL
Kd [1, 30]: 600 nM

KQIQKVETW
Kd [3, 31]: 4.77 nM | Kd [4, 31]: 460 nM | Kd [2, 31]: 49.5 nM

KQIQRVETW
Kd [5]: 8.58 µM | Kd [3, 32]: 10.8 nM | Kd [6, 32]: 67.8 nM | Kd [4, 32]: 44.1 nM | Kd [2, 32]: 21.1 nM

KVREHTFVK
Kd [7]: 2.12 nM | Kd [1, 30]: 19300 nM | Kd [6, 30]: 4120 nM | Kd [8]: ≥ 45.4 µM | Kd [2, 30]: 148 nM

LASSLLKNDI
Kd [3, 33]: 717 nM | Kd [4, 33]: 1280 nM

MMVSTENNL
Kd [1, 30]: 11 nM

NKVLCISFF
Kd [1, 30]: 41.4 nM

NSYTLLLAY
Kd [9]: 676 nM | Kd [10]: 49 nM

QKMHNHYAY
Kd ([11]; source organism: Escherichia coli HS): 19.9 nM

QQSEARRML
Kd [12]: ≥ 20 µM | Kd [13]: ≥ 20 µM | Kd [14]: 109 nM | Kd [15]: ≥ 20 µM | Kd [16]: 6.41 µM | Kd [17]: ≥ 20 µM | Kd [18]: ≥ 20 µM | Kd [19]: ≥ 20 µM | Kd [20]: ≥ 20 µM | Kd [21]: 703 nM | Kd [22]: ≥ 20 µM | Kd [23]: ≥ 20 µM | Kd [24]: ≥ 20 µM | Kd [25]: 397 nM | Kd ([26]; source organism: Yersinia pestis CA88-4125): 2090 nM

SIYFLRGNH
Kd [27]: ≥ 20 µM

SKYAGINIL
Kd [7]: 546 nM | Kd [1, 30]: 0.271 nM | Kd [6, 30]: 5640 nM | Kd [8]: 16.3 µM | Kd [2, 30]: 16100 nM

SMIDNSHLE
Kd ([11]; source organism: Cryptosporidium parvum Iowa II): 68.3 nM

SNENGGPPL
Kd ([26]; source organism: Influenza A virus (A/Cameron/1946(H1N1))): ≥ 20000 nM

SQFTCSLAV
Kd [1, 30]: 1.47 nM

SSIIKTFVV
Kd [28]: 17.9 nM

VMVTSKPLF
Kd [7]: 15600 nM | Kd [1, 30]: 8.79 nM | Kd [6, 30]: 15.9 nM | Kd [8]: 3.54 µM | Kd [2, 30]: 18100 nM

VSRLFWYGY
Kd ([11]; source organism: Bacillus anthracis str. A0488): 75.9 nM

YMYIMKLHH
Kd ([11]; source organism: Mycobacterium leprae): 36 nM

YQTSVSQVA
Kd [1, 30]: 1.45 nM

YRAVVPLVY
Kd [3, 34]: 1500 nM | Kd [4, 34]: 12600 nM
